Values quoted from earlier work in paper PMC2846219.
Where two headings read alike, the source gives them in different places.

Legend:
[1] = molecular target: PCNA (Homo sapiens) (UniProt P12004)
[2] = molecular target: PCNA (Homo sapiens) (UniProt P12004); remark: listed apart in the source

UniProt P12004, sequence (P12004 whole entry): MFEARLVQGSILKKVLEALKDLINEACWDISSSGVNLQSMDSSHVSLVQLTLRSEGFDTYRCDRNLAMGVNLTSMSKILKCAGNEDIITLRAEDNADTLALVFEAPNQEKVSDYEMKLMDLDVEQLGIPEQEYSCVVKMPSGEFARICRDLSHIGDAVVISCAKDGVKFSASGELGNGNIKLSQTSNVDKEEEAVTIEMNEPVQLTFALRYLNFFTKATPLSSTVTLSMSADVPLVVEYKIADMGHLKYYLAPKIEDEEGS

Kd [1] | Kd [2] | Substance
400 nM |  | DNA polymerase eta PIP peptide PIP peptide (from UniProt Q9Y253)
 | 390 nM | DNA polymerase iota PIP peptide PIP peptide (from UniProt Q9UNA4)
